Measured values as given in US20260209362A1 (VIB VZW, published 2026).
Changes are numbered by the printed parent chain.

T1: human IL-12Rβ2 expressed on cells (human, UniProt Q99665 24-862)
T1 sequence: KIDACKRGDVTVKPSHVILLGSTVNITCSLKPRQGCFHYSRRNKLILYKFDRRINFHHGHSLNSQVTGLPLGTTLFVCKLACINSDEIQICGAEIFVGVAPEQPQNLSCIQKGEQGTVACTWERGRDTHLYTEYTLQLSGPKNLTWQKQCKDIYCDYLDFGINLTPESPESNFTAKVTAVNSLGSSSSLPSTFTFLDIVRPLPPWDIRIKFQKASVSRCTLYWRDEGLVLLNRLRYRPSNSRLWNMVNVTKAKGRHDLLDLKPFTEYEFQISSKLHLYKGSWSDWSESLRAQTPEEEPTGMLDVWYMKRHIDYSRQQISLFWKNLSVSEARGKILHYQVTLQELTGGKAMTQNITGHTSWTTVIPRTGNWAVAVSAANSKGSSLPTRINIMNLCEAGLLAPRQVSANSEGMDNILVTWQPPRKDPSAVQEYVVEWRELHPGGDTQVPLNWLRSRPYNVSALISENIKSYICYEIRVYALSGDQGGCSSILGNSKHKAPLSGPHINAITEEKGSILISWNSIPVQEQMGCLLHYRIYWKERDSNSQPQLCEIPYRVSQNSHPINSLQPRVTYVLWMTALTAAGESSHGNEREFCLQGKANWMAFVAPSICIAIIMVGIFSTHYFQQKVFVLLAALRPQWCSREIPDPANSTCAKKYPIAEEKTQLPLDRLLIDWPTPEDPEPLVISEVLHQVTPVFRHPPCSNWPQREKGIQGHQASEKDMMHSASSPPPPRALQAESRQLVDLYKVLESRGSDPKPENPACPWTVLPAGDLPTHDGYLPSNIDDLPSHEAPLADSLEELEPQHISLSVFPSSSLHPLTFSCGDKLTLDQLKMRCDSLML

B1: 20372-FcDE (Fc fusion)
VHH-Fc chain: QVQLQESGGGLVQAGGSLRLSCAASARTESMYAMAWFRQAPGKEREIVAGIIQSGGTTYISDYMKGRFSIDRGNAENTVYLQMDSLKPEDTAVYSCAAKVSSGTPSDIQISQSRWYDHWGQGTQVTVSSAPELLGGPDVFLFPPKPKDTLMISRTPEVTCVVVDVSHEDPEVKFNWYVDGVEVHNAKTKPREEQYNSTYRVVSVLTVLHQDWLNGKEYKCKVSNKALPAPEEKTISKAKGQPREPQVYTLPPSRDELTKNQVSLTCLVKGFYPSDIAVEWESNGQPENNYKTTPPVLDSDGSFFLYSKLTVDKSRWQQGNVFSCSVMHEALHNHYTQKSLSLSPGK
B2: 20373-FcDE (Fc fusion)
VHH-Fc chain: QVQLQESGGGLVQAGGSLVLSCAASGSAALIFLMSWYRQAPGKQRELVAEVSRGGSTTYADSVEGRFTISRDNAKNIVDLQMNSLKPEDTAVYYCKADQNYGDSLRSSWGQGTQVTVSSAPELLGGPDVFLFPPKPKDTLMISRTPEVTCVVVDVSHEDPEVKFNWYVDGVEVHNAKTKPREEQYNSTYRVVSVLTVLHQDWLNGKEYKCKVSNKALPAPEEKTISKAKGQPREPQVYTLPPSRDELTKNQVSLTCLVKGFYPSDIAVEWESNGQPENNYKTTPPVLDSDGSFFLYSKLTVDKSRWQQGNVFSCSVMHEALHNHYTQKSLSLSPGK
B3: 20378-FcDE (Fc fusion)
VHH-Fc chain: QVQLQESGGGLVQAGDSLRLSCTASGHTFSRYTTIGWFRQAPGKDREFVAAIRWSGDITDYADAVKGRFTISRDNVKNTVYLQMNSLNPEDTAVYYCARGYSEYGVLSRNRGLYAYWGQGTQVTVSSAPELLGGPDVFLFPPKPKDTLMISRTPEVTCVVVDVSHEDPEVKFNWYVDGVEVHNAKTKPREEQYNSTYRVVSVLTVLHQDWLNGKEYKCKVSNKALPAPEEKTISKAKGQPREPQVYTLPPSRDELTKNQVSLTCLVKGFYPSDIAVEWESNGQPENNYKTTPPVLDSDGSFFLYSKLTVDKSRWQQGNVFSCSVMHEALHNHYTQKSLSLSPGK
B4: 20394-FcDE (Fc fusion)
VHH-Fc chain: QVQLQESGGGLVQAGDSLRLSCAASGRTFDTYIVGWFRQAPGKEREFVSALSWSDDTTIRDDSLRGRFTISRDNAKNTVYLLMNSLKPEDTAVYYCAAKAKPPAATWSSYRNREWYDYWGQGTQVTVSSAPELLGGPDVFLFPPKPKDTLMISRTPEVTCVVVDVSHEDPEVKFNWYVDGVEVHNAKTKPREEQYNSTYRVVSVLTVLHQDWLNGKEYKCKVSNKALPAPEEKTISKAKGQPREPQVYTLPPSRDELTKNQVSLTCLVKGFYPSDIAVEWESNGQPENNYKTTPPVLDSDGSFFLYSKLTVDKSRWQQGNVFSCSVMHEALHNHYTQKSLSLSPGK
B5: 20399-FcDE (Fc fusion)
VHH-Fc chain: QVQLQESGGGLVQPGGSLRLSCAASGSILRINLMGWYRQVPGKQRELVAEMSTGGSTTYVDSVEGRFTISRDNAKNTVYLQMNSLKPEDTAVYYCNAKAWQLGRLENDDWGQGTQVTVSSAPELLGGPDVFLFPPKPKDTLMISRTPEVTCVVVDVSHEDPEVKFNWYVDGVEVHNAKTKPREEQYNSTYRVVSVLTVLHQDWLNGKEYKCKVSNKALPAPEEKTISKAKGQPREPQVYTLPPSRDELTKNQVSLTCLVKGFYPSDIAVEWESNGQPENNYKTTPPVLDSDGSFFLYSKLTVDKSRWQQGNVFSCSVMHEALHNHYTQKSLSLSPGK
B6: 20400-FcDE (Fc fusion)
VHH-Fc chain: QVQLQESGGGLVQPGGSLRLSCAASGRTINAYIMGWFRQAPGKEREFVAAVSGSGGSTYYADSVKGRFTISRDNAKNTVNLQMDNLRSEDTDVYYCAATYESVYLQNPGQYDYWGQGTQVTVSSAPELLGGPDVFLFPPKPKDTLMISRTPEVTCVVVDVSHEDPEVKFNWYVDGVEVHNAKTKPREEQYNSTYRVVSVLTVLHQDWLNGKEYKCKVSNKALPAPEEKTISKAKGQPREPQVYTLPPSRDELTKNQVSLTCLVKGFYPSDIAVEWESNGQPENNYKTTPPVLDSDGSFFLYSKLTVDKSRWQQGNVFSCSVMHEALHNHYTQKSLSLSPGK
B7: 20401-FcDE (Fc fusion)
VHH-Fc chain: QVQLQESGGGLVQAGESLTLSCIASGVIKDYAMGWFRQAPGKEREFVAAISWSGVSIYYADSVKGRFTISRDNAKNTVYLQMNSLEPEDTAVYYCAGTEGAYTVAGGSTFGYDMDYWGKGTQVTVSSAPELLGGPDVFLFPPKPKDTLMISRTPEVTCVVVDVSHEDPEVKFNWYVDGVEVHNAKTKPREEQYNSTYRVVSVLTVLHQDWLNGKEYKCKVSNKALPAPEEKTISKAKGQPREPQVYTLPPSRDELTKNQVSLTCLVKGFYPSDIAVEWESNGQPENNYKTTPPVLDSDGSFFLYSKLTVDKSRWQQGNVFSCSVMHEALHNHYTQKSLSLSPGK
B8: anti-IL-12Rβ2-VHH-FcDE clone 20407 (Fc fusion)
chain: QVQLQESGGGLVQPGGSLRLTCVASGFPFSTHAMSWVRQPPGKGREWISAINSGGDSTDYADSVMGRFTISRDNAKNTVYLQMNSLKSEDTAAYYCAKYEDCSDYDCSSRASWGQGTQVTVSSAPELLGGPDVFLFPPKPKDTLMISRTPEVTCVVVDVSHEDPEVKFNWYVDGVEVHNAKTKPREEQYNSTYRVVSVLTVLHQDWLNGKEYKCKVSNKALPAPEEKTISKAKGQPREPQVYTLPPSRDELTKNQVSLTCLVKGFYPSDIAVEWESNGQPENNYKTTPPVLDSDGSFFLYSKLTVDKSRWQQGNVFSCSVMHEALHNHYTQKSLSLSPGK
B9: 20415-FcDE (Fc fusion)
VHH-Fc chain: QVQLQESGGGLVQPGGSLRLSCTASGSIVSIYNMDWYRQAPGNEREWVASITSSGDPYYDGSAKGRFTISRDNAKMTVYLQMNSLKPEDTAVYYCKVPTEKGNYWGQGTQVTVSSAPELLGGPDVFLFPPKPKDTLMISRTPEVTCVVVDVSHEDPEVKFNWYVDGVEVHNAKTKPREEQYNSTYRVVSVLTVLHQDWLNGKEYKCKVSNKALPAPEEKTISKAKGQPREPQVYTLPPSRDELTKNQVSLTCLVKGFYPSDIAVEWESNGQPENNYKTTPPVLDSDGSFFLYSKLTVDKSRWQQGNVFSCSVMHEALHNHYTQKSLSLSPGK
B10: 20421-FcDE (Fc fusion)
VHH-Fc chain: QVQLQESGGGLVQPGGSLRLSCAASGFTFSTYAMSWVRQAPGKGLEWVSAVNSGGLSTDYADSVEGRFTISRDDAKNMLFLQMNRLKPEDTARYYCAKYEDCSDYVCDRAGYWGQGTQVTVSSAPELLGGPDVFLFPPKPKDTLMISRTPEVTCVVVDVSHEDPEVKFNWYVDGVEVHNAKTKPREEQYNSTYRVVSVLTVLHQDWLNGKEYKCKVSNKALPAPEEKTISKAKGQPREPQVYTLPPSRDELTKNQVSLTCLVKGFYPSDIAVEWESNGQPENNYKTTPPVLDSDGSFFLYSKLTVDKSRWQQGNVFSCSVMHEALHNHYTQKSLSLSPGK
B11: 20422-FcDE (Fc fusion)
VHH-Fc chain: B9 VHH-Fc chain with K86E, Y94F
B12: 20429-FcDE (Fc fusion)
VHH-Fc chain: QVQLQESGGGLVQPGGSLRLSCKASGFTFSTYAMSWVRQAPGKGLEWVSAVNSGGLSTDYADSVEGRFTISRDDAKNMLFLQMNSLKPEDTARYYCAKYEDCSDYMCHRDRAGYWGQGTQVTVSSAPELLGGPDVFLFPPKPKDTLMISRTPEVTCVVVDVSHEDPEVKFNWYVDGVEVHNAKTKPREEQYNSTYRVVSVLTVLHQDWLNGKEYKCKVSNKALPAPEEKTISKAKGQPREPQVYTLPPSRDELTKNQVSLTCLVKGFYPSDIAVEWESNGQPENNYKTTPPVLDSDGSFFLYSKLTVDKSRWQQGNVFSCSVMHEALHNHYTQKSLSLSPGK

Target: T1, human IL-12Rβ2 expressed on cells
Experiment: cell-based or functional assay

Row | Binder | % Specific Cell Lysis at 0.00125 ug/mL [%] | % Specific Cell Lysis at 0.5 ug/mL [%] | % Specific Cell Lysis at 10 ug/mL [%] | % Specific Cell Lysis at 0.025 ug/mL [%]
1 | B1 | 51.1 | 66.9 | 69.9 | –
2 | B2 | 48.9 | 67.4 | 70.7 | 61.1
3 | B3 | 52.4 | – | – | –
4 | B4 | 54 | – | 66 | 52.1
5 | B5 | 61 | 67.1 | 72.4 | 63.1
6 | B6 | 45.4 | – | – | 47.6
7 | B7 | 48 | – | 64.9 | 47.5
8 | B8 | 63.3 | 71.7 | 66.2 | 66.5
9 | B9 | 52.8 | 68.8 | 77.9 | 61.1
10 | B10 | 61.3 | 67.7 | 69 | 65.9
11 | B11 | – | 65.8 | 67.3 | –
12 | B12 | 59 | 67.7 | 67.3 | –
